# Assay results published in PMC10171809.
# Target: HEXIM1 (UniProt O94992)
# Experiment: co-immunoprecipitation
# Conditions: reference: wild type; sites S43
substance,measurement,value
METTL3 (from UniProt Q86U44) S43A,binding against the reference,stronger
